From publication PMC9133112, “The structural basis of Cdc7-Dbf4 kinase dependent targeting and phosphorylation of the MCM2-7 double hexamer” (Nature Communications, 2022)

B2: Mcm7 (natural protein, Saccharomyces cerevisiae, UniProt P38132 1-845, looked up)
chain: MSAALPSIQLPVDYNNLFNEITDFLVTFKQDTLSSDATRNENEDENLDAENIEQHLLEKGPKYMAMLQKVANRELNSVIIDLDDILQYQNEKFLQGTQADDLVSAIQQNANHFTELFCRAIDNNMPLPTKEIDYKDDVLDVILNQRRLRNERMLSDRTNEIRSENLMDTTMDPPSSMNDALREVVEDETELFPPNLTRRYFLYFKPLSQNCARRYRKKAISSKPLSVRQIKGDFLGQLITVRGIITRVSDVKPAVEVIAYTCDQCGYEVFQEVNSRTFTPLSECTSEECSQNQTKGQLFMSTRASKFSAFQECKIQELSQQVPVGHIPRSLNIHVNGTLVRSLSPGDIVDVTGIFLPAPYTGFKALKAGLLTETYLEAQFVRQHKKKFASFSLTSDVEERVMELITSGDVYNRLAKSIAPEIYGNLDVKKALLLLLVGGVDKRVGDGMKIRGDINVCLMGDPGVAKSQLLKAICKISPRGVYTTGKGSSGVGLTAAVMKDPVTDEMILEGGALVLADNGICCIDEFDKMDESDRTAIHEVMEQQTISISKAGINTTLNARTSILAAANPLYGRYNPRLSPLDNINLPAALLSRFDILFLMLDIPSRDDDEKLAEHVTYVHMHNKQPDLDFTPVEPSKMREYIAYAKTKRPVMSEAVNDYVVQAYIRLRQDSKREMDSKFSFGQATPRTLLGIIRLSQALAKLRLADMVDIDDVEEALRLVRVSKESLYQETNKSKEDESPTTKIFTIIKKMLQETGKNTLSYENIVKTVRLRGFTMLQLSNCIQEYSYLNVWHLINEGNTLKFVDDGTMDTDQEDSLVSTPKLAPQTTASANVSAQDSDIDLQDA
notes: Mcm7, Saccharomyces cerevisiae, full length; Subunit of m2, written alone for the contacts seen in the cryo-EM structures

Experiments:
Assay in all cases: cryo-EM structure; MD-(ATPγS): 250 nM DH released from beads by AluI + 750 nM DDK, 10 min 24 °C, buffer C with 3 mM ATPγS; GraFix glycerol gradient with glutaraldehyde; states I-III
Details in all cases: both partners purified
Mcm4 = target: T1, Mcm4 (Saccharomyces cerevisiae, UniProt P30665 1-933)
T1 construct: Mcm4, Saccharomyces cerevisiae, full length; Subunit of m2, written alone for the contacts seen in the cryo-EM structures
T1 sequence (looked up): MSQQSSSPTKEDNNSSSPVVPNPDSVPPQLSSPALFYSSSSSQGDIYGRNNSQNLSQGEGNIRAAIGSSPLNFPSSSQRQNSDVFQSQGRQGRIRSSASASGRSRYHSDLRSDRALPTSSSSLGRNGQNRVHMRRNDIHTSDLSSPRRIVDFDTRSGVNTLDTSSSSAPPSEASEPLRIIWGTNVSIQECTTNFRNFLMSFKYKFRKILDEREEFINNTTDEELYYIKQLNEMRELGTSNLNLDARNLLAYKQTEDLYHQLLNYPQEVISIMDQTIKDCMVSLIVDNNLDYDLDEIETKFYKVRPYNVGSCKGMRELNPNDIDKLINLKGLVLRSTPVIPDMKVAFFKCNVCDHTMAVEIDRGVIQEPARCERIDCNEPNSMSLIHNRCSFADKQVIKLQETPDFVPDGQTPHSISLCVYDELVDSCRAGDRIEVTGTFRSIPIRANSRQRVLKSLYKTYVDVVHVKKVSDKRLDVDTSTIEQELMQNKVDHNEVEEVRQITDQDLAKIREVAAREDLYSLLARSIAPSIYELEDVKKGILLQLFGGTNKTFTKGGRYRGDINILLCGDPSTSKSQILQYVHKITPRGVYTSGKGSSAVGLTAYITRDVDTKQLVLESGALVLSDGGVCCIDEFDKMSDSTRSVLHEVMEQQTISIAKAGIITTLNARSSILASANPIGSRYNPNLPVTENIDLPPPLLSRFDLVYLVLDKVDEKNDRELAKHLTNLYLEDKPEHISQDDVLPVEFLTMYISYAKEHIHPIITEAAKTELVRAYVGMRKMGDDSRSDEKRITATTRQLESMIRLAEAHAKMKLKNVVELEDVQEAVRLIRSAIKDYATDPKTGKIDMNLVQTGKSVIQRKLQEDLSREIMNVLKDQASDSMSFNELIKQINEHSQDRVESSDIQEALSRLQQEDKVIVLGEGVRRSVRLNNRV

Mcm6 = target: T2, Mcm6 (Saccharomyces cerevisiae, UniProt P53091 1-1017)
T2 construct: Mcm6, Saccharomyces cerevisiae, full length; Subunit of m2, written alone for the contacts seen in the cryo-EM structures

Mcm7 = target: B2
Mcm2 = target: T3, Mcm2 (Saccharomyces cerevisiae, UniProt P29469 1-868)
T3 construct: Mcm2, Saccharomyces cerevisiae, full length; Subunit of m2, written alone for the contacts seen in the cryo-EM structures
T3 sequence (looked up): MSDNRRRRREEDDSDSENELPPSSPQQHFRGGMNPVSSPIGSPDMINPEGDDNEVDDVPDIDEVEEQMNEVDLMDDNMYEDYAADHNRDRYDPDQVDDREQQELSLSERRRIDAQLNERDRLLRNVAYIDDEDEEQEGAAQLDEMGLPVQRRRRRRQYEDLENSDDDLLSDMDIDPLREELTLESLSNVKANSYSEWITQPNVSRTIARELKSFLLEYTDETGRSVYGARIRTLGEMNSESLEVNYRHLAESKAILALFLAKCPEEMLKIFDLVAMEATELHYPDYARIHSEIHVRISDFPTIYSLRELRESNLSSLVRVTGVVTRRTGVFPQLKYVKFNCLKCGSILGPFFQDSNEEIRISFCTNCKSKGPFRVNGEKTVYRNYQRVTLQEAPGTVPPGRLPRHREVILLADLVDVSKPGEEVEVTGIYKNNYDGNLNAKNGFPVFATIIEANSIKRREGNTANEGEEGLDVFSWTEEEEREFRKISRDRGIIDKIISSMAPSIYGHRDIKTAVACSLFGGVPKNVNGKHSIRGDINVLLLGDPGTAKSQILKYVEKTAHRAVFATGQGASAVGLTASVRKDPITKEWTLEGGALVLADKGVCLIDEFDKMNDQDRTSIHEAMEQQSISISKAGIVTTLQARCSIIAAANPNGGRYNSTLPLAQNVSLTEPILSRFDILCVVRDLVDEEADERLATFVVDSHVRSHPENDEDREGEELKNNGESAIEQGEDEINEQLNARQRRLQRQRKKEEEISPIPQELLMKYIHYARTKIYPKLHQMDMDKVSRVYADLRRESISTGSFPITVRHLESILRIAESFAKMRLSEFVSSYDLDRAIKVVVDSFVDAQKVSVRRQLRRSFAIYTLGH

Mcm3 = target: T4, Mcm3 (Saccharomyces cerevisiae, UniProt P24279 1-971)
T4 construct: Mcm3, Saccharomyces cerevisiae, full length; Subunit of m2, written alone for the contacts seen in the cryo-EM structures

Measured: binding result

T2 sequence (P53091 whole entry): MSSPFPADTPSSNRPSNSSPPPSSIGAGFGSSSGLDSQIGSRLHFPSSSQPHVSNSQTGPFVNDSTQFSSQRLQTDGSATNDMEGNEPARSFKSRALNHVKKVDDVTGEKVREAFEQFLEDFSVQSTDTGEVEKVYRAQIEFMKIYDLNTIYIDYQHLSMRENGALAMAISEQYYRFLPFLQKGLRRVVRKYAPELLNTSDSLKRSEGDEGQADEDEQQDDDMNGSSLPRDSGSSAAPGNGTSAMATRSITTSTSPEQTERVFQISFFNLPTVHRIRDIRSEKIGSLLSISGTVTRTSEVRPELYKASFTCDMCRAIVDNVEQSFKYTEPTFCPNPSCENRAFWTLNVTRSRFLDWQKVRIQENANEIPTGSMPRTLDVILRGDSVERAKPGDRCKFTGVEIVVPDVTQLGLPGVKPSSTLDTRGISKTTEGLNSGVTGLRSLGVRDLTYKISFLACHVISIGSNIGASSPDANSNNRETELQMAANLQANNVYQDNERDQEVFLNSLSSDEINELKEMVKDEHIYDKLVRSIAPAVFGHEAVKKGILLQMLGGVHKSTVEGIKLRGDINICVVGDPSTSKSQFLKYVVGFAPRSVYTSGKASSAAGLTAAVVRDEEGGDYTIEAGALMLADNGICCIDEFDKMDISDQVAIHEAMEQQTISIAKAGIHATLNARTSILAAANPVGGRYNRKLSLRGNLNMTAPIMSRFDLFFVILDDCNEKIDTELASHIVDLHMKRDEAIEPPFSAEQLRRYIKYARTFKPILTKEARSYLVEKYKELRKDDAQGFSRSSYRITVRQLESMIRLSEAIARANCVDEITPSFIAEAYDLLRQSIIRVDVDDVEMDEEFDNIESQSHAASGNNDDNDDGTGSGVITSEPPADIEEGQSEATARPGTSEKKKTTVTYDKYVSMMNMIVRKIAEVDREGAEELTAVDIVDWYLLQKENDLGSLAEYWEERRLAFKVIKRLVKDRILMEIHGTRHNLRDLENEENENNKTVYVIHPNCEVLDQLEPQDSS
T4 sequence (P24279 whole entry): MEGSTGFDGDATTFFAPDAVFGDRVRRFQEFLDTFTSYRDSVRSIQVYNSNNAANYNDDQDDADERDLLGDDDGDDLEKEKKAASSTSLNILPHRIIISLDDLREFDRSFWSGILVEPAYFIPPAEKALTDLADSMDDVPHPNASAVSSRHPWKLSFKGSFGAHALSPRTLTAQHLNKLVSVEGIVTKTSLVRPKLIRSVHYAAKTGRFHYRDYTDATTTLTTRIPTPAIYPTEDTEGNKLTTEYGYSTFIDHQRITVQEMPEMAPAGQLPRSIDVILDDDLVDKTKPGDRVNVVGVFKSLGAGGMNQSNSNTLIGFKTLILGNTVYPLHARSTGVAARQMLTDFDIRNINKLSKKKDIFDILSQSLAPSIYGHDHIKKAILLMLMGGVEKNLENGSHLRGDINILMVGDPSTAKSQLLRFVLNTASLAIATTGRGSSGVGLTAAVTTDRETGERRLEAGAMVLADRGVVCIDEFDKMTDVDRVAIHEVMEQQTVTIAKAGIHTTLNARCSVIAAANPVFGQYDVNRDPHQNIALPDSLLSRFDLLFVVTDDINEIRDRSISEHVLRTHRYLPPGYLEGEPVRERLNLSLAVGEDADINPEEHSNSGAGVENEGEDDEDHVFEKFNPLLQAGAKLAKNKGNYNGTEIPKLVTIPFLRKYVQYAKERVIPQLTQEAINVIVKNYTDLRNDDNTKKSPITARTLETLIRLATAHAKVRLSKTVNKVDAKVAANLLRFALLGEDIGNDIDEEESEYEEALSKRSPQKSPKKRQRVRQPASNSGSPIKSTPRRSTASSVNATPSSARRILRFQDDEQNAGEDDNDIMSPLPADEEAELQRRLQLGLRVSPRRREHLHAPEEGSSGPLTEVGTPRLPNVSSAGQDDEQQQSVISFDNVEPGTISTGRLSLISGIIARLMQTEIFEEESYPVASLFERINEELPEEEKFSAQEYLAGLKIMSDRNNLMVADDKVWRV

B1: Dbf4 (natural protein, Saccharomyces cerevisiae, UniProt P32325 1-704, looked up)
chain: MVSPTKMIIRSPLKETDTNLKHNNGIAASTTAAGHLNVFSNDNNCNNNNTTESFPKKRSLERLELQQQQHLHEKKRARIERARSIEGAVQVSKGTGLKNVEPRVTPKELLEWQTNWKKIMKRDSRIYFDITDDVEMNTYNKSKMDKRRDLLKRGFLTLGAQITQFFDTTVTIVITRRSVENIYLLKDTDILSRAKKNYMKVWSYEKAARFLKNLDVDLDHLSKTKSASLAAPTLSNLLHNEKLYGPTDRDPRTKRDDIHYFKYPHVYLYDLWQTWAPIITLEWKPQELTNLDELPYPILKIGSFGRCPFIGDRNYDESSYKRVVKRYSRDKANKKYALQLRALFQYHADTLLNTSSVNDQTKNLIFIPHTCNDSTKSFKKWMQEKAKNFEKTELKKTDDSAVQDVRNEHADQTDEKNSILLNETETKEPPLKEEKENKQSIAEESNKYPQRKELAATPKLNHPVLATFARQETEEVPDDLCTLKTKSRQAFEIKASGAHQSNDVATSFGNGLGPTRASVMSKNMKSLSRLMVDRKLGVKQTNGNNKNYTATIATTAETSKENRHRLDFNALKKDEAPSKETGKDSAVHLETNRKPQNFPKVATKSVSADSKVHNDIKITTTESPTASKKSTSTNVTLHFNAQTAQTAQPVKKETVKNSGYCENCRVKYESLEQHIVSEKHLSFAENDLNFEAIDSLIENLRFQI
notes: Dbf4, Saccharomyces cerevisiae, full length (41% resolved in the map); Subunit of m1, written alone for the contacts seen in the cryo-EM structures; also called dumbbell former 4; source: budding yeast cells, purified as subunit of DDK
not listed: Mcm3
binds: all other assays above

B2
binds: Mcm4 | Mcm3
